In a protein production outcome set (Wang et al. 2014):

Test: label from the status in PepcDB records

Protein production, failed:
MRTKILLLTFTLLSSFSVLSQGNDLEQGMYELNRGEFKAAIEQFRPLVNEGYAPAQYQMALVYLHGYSVRKDSMKALELFELSAAQNYPDAQFELALIYSDGKLVKQNLKKAFELTHKAANKDLPSAQFNLAVMYANGTGIKQDDFKASRWYQRAANQNYALAQFNLALLYSEGKGVEKSTELSYVWNTIASWNGYPNAEKSRLMDERDLSKLKIEKSIEKANDIYQKIRDQQEMKAKMAEKQNFY
MRTPRFLRAVHANRTTARDVSSLRLPLQPRRDRARPGAMRTGLQGSVGIQCQLQRQHCQRQVASHAHYCADRGAVHCDGIACLDRAIGFQQLQGALGLAQEMRARHDLLTRVAAFFDAVGLQTVECQLLWRPLFALALDQASEPQLQIRAPPLRIYARRFDRRCQCFFGVQQQGARQRSAAQIQHDTLRSEIGLRGARAFRCCEAAKGKQRGSADFQLAAEDETAELGGDLGRVAVRQQHQQVCIVLTQKCEDGNHAPLRRQPRIPLPLPNRQRLYVIGKLGMRERHCIRADQSDVLDILQGAKTLRNKIQVVSHGRGGLKSPSCESTMIGHPTPTPAQDSETQPSSQEHIPEKKPLPKEIGGRDGPEPTRYGDWEKNGRCIDF
MRTTADRIRHTVGFELIGLLIFAPLASLVFGYALHQMGLVGAVASLIAAVWNYVYNILFDRGMLRFTGQLRKTPAIRVLHAILFEGGLLLVFLPSVAWYLDMTLLDAFIMDIAVAGFYMVYALVYNWVYDAVFPIPGLKAKEDSQPADCPSAN
MRTVDVFHPQAASNSAAVHASPQTTVAFSPDGTHYASAGYDGRVVLWDRSGTSPRWVGRHSRLVNGVRFSPSGRLLASGSADKTCRIWEVATGRQVQLLARQPDDLNALAWLDENRLVTVSQDGTGRIWDIRTGVLQEGVIFHADHCMSVDAAPTGVLASCGEDATIRLWDTDGSLLRDLPQAGHAEMCRWSPDGTLLAASCDDGFVHIVRTDGELVTKVGPYTAAVKSVAWSQDGSRIVIGAYDSTIALWDIADCRPLVRWYGAHLWPRAVDWSADGRTVVAGTFSARPAVIDVPEIPADALPDEVREITLEASVPTHGVNHVSAAGEVLAAGGDNGTIRVWSHRGATATEVPVGNGSLVNTVAVSAELPGLVAYGSFSGRVGVADAVTGRDVAAVQREHPVNRAAWSPDGRRLAVADYEGGLDLYAWTGRELVPGVHYAGHDGAIKDVSWVDADRLVTYSTDRRAHLITTEGTLIRSFGGHGELINGGSVTTVAGRALLATVSRDRTSRIYDLETGELLQVLVGHDESAKCAAWHPGGEPLLVTGSYDFTGRLWVLDPKTLAPLHQHVLEGHGSAVSAVCWLGDDAVTASWDSKVFTWTPDADPARPPAAAEPATDWRVREGSR
MRTVVDYGAAIAFGVAYFVTKDFQKATWVLVAASAAALAIGYAVERRLAMLPLFFGGMALVFGTLGLIFGSDVFVKIKVTVINLALASFLVGGVLLKRQPLKVIMGEALHLPDAAWRTLTLRYGAYFAFVAIINEVVRNTQDTDTWVKFRLALLPVALVFVATQLPFMMKHMAKGDDAKAVEPPDAGF
MRVAILGCGYVGCALARRLLAAGHDVVGVCRSPDSLDAVRETGATAVRADVTDAASLAAVPDADAVVFAASSGGRGADAAREVYVDGLRTVVEQFGGRDDPPEQLVYTSSTGVYGDHDGDWVDEETPLDPTTEKTAALVDAERVALTDASEHGLDPTVVRFAGLYGPDRYRLTRYLDGPVTEGYLNMIHRDDAAGVVAFALTDADADVLLAVDDDPVSKWAFADWLADEAGVPQPAKQTVAERIAAGDLSTPAERRLRTSKRCSNARLTELGYSFAHPTFRSGYQAAIRAHERGEYK
MRVAVITDSHGNAYALEATLREVHAAAPDLIVNLGDQIEGCADPARAAALQADLGALEVRGNNEEKLWPDGRRTPLAQEVGAWLAAQVSPADRERLAALPLTARVEGLFACHGTPESAWDSLLWVWDAAGGFYRSRDPRELRRMVEPLGAEVVVCGHTHRAGATRVGDTLVVNCGAISDQVDGDPRARWTLLERRGGGWNVEFHNVAYDIAGAVAWARAHSPFGDFEAHLLESGEMTGRGTGGI
MRVDIWSDVVCPFCYIGKKRLEHVAAEAGIELDVHWHSFELDPDAPTSHDTSNTERLAKKYGRTFEEMQEMQQNIASMAAQEGIDFQWQKANSGNSFNAHRIIHLAQSKGLGNEAEEAFFHAYMTEGLAIGEREVVEEIASRIGLDHAEVEFVLDSNELSDFVRHDEKIAHEQLNISGVPFFVFDQKLALSGAQPKEVFLQVLQKALTQRENDAVAEASSDAVCSDDSCDIPQKS
MRVLVIGATGHVGTYLVPRLVEAGHDVVTISRGAARPYTADRAWASVDQRQMDRVEMERKGDFGPAMRALNADIVIDMICFTLESAEQLVTALSGYVGHFLHTGTIWTHGYPVAVPTREEAPKSPFGDYGIQKAAIETYLLQQARLRGFPATIIHPGHIVGRGWAPLNPAGNFNLQVFSTLARGEALALPNFGLETVHHVHADDVAAMFMDAIANRNASLGESFHAVSEQALTLRGYAESMSRWFGRDPKLTFAPFDAWARGQAAEDAEATWEHIARSPNCSIAKARRLLGYGPRYTSLQAVQESVGWLLGQGRIKS
MRVNGLTKGFFILIVFIVTLAFFDVLSPYYSAILWAAILAVIFNPVKNKIRTRLGERNGLAALMTIVIICLIVFTPLAIILSSLAYELNLVYSKLQHNDTQFPTVVASLFAHLPGWARSFLADHNLDSAQQIQQQLSDAALKGGQYLAGSAFLIGKGTFGFTVSFGIMLYLLFFLLKDGPYLVLLILESLPLSSYVKQHLFAKFAAVARATVKGTVAVALAQGALGGFAFWIAGLDGSILWGALMAFLSLIPAVGSAIIWVPAAIYLFATGQLWQGAFIVGFFVIVIGLVDNILRPLLVGKDTRMPDYLILIATLGGMEIYGINGFVIGPLIAALFIACWNLLSGREHAGNTDEIDEEFIEEAKNSRNE
MRVQANSRSMGVLEDKARARTFYKYLSKVYDRVNTFIWTEEMRAEALSMLDIDAEDRVLDVGCGTGFGTEGLLKHTEHVYGLDQSPHQLTKAWEKFGKHDPVAFHFGDAERLPFKPDSFDVVWSSGSIEYWPHPVQGLRELRRVAKPGSQVLVVGPDYPASTVFRKLADAIMLFYDEDEADRMFREAGYEEIQHRVLRKEPNSPPAIVTVARAPAADD
MRVSVVIPARNEEAYLPSALEAVLAQTLPPFEVIVVDNASTDRTREVAEAFGARVVFCGRKGVAYARQAGLLAARGEWVAMTDADSLPTPRWLERLAHKAPGAVAVYGPLRFYGVSPLEAAFSEWGYRAFLNLMALLGRPNLAGANMMVLKEAALKVGGFPEVEAREDVLLGWRLKALGPVRYARDALVLTSARRLQGGWGRFLLRQARNLLGDPRGYFGEAGERER
MRVTGVIIRIIRQFFRDKRSLAMMFGAPMLLLWLLSLVFTQKDYVPHIAVVDMPVQVVKVMKNQEASIYEYSKEKAMSELENQKVDAVIRLENGKMNIVLEGSDSSKNRAVLQILQKSTEKNDVSIMKPEVNYLHGSKDFTMFDGLGPVLIGFFTFFFVFILSGVSFVRERLSGTLERLLSTPIKRWEIVVGYIIGFGIFAFIQSIIIVSFSVYILDLYVAGSIWLTLLITCMLSLTALTLGTFLSAYANNEFQMIQFIPLVIVPQIFFSGLFPIESMNKWLQMLGKLFPLTYGADAMRQVMIRNQGFTEIALDLTVLLFFSVLFAVGNVFALKKHRKI
MRVVHILLQVGILYGFYLVGSWIQKSFELIVPGSIIGMVLLLIALAIKAISPKWIEQGSMQLLLLMPMLFLPVTVGIMEYWHMFHGSGFWLLIIAFVSTILVFIISGWITQWLIAWKTKGIDKHDHL
MRVVIVGAGKVGYSLAQYLTQEDHEVIVIEENEERRAIVQNTLDVMTISGNGASPRVLLDPEVRKAELMIAVTDMDEVNMIACMAAKQVGIKRTIARVRNQEYAEKDKIKFNEALGIDLTINPEMVTALEIKRILLTPSALDVEDFAGDRVRMIEVKMPSDSKLINTSLTQLTLPSHTLVAGILRNGRMLIPHGSDMLLPNDCVFFVGEVSAIKKIEDHFTVRKSKVERVLIIGAGRIGRHLAMILEKSDIAVKIIDKDMERCQELAESLDEGLVLCGEGTDIELLTEEGVGEADAVLCLTDDDKLNLLIALLAKHLGAPRTFVRVGRPDYISLMEKVGVDVVLSPRILTAGVILRYVRRSDVVSVSLLEGAKAEAMEIIIPPLSQVTHKKLKDAKLPKNSLIGSIVRDEEIIIPNGETVLKPGDRAIIFALPDTVPTVVRLFENKLESK
MRVYDMHVHLHEYSDREVEEILDADKSLVVVAVSDDLESAWRTLDLWHTFGGRVVPCLGFHPWNVREGRVWEAWEVLRLAYRYGVPCLGEVGLDRRFVDEYTWRVQNEVFDAFVQLAEDMGVMLNIHAPDAWKHVAHRIGWTSRARFMYHWYTGPATLPRALPEGRVWFSINSAIRVQEKSVRVAREIPLRSLVVESDGPYNYRGLRLSPLMVRETVKLVAEARGEDPGRLMEAISLNSERLLGLL
MRWKGRRVSSNVEDRRGSGAKVGGISIIGLVVAFVAWKFFGVDPQQAYQATQQITAAQNPSSNAPQQLTADQKEASDFVGTILADTEDTWTPIFKQLGQTYVPPKLVLFNGIVQSGCGTAQSAMGPFYCPTDQKVYIDTSFFKDMREQMGISGEQNQTELSRQDQAGDFAQAYVVAHEVGHHIQNLLGISSQVQQAQAQGSRAQANQLSVRLELQADCFAGIWANHNQQRTQFLEAGDIEEAMDAAQKIGDDYLQKRSTGQVVPDSFTHGTSQQRMHWFEVGLKSGDLNQCDTF
MRWVKAGELPMEAAYGATVSLPDRLIFIGGSNSSDRFSSVLSFSFDCMKDSGLICETLPPLPHAVDNMSATLLGDTLYVLGGNRNGIPSSSMFSLCLDNYSAGWTEVPFPGRPRVQPVCSSLLGKLYVFGGFTSGGDASVSTDGLCYHPESGQWQVVKAPLTTKGEPLTLTGGASVSYGDVLLICAGGVNRDIFEDAISARYQMVRESEYLLQPIEWYRFNDQLLAYNVRSGEWIRIGVPSPMLARAGSSLVVFGDILFYIGGELKPGVLEHHHHHH

Protein production, not failed:
MRTNKDRLVRISVVGEIAPAKMRSPYSVTTEGTVRVIPVLGGITYNVKVGDSAYGWAGDHVEPGVSVMARRKEEEIPLMTLSCIGNEVIVMSGDAKGSRGFVTGKHGGVNHVLVHFEEEVLGKLMVGDKILIKAWGQGLKLLDHPDVKVMNIDPDLFEKLGIQEKNGKIHVPVVAKIPAHMMGSGIGASSSASTDYDIMASNPEDLGVADLKLGDIVAIQDHDNSYGVGKYRKGAVSIGVVVHSACVSAGHGPGVVVIMTGDESKILPEEVERANISDYLVR
MRVGALDVGEARIGLAVGEEGVPLASGRGYLVRKTLEEDVEALLDFVRREGLGKLVVGLPLRTDLKESAQAGKVLPLVEALRARGVEVELWDERFTTKLAQERLKHAPKRLRRDKGKLDELAAVVLLEDYLARGI
MRVLITGATGGLGGAFARALKGHDLLLSGRRAGALAELAREVGARALPADLADELEAKALLEEAGPLDLLVHAVGKAGRASVREAGRDLVEEMLAAHLLTAAFVLKHARFQKGARAVFFGAYPRYVQVPGFAAYAAAKGALEAYLEAARKELLREGVHLVLVRLPAVATGLWAPLGGPPKGALSPEEAARKVLEGLFREPVPALLEV
MRVRTERLTLAGLSVLARIPEAPKALLLALHGLQGSKEHILALLPGYAERGFLLLAFDAPRHGEREGPPPSSKSPRYVEEVYRVALGFKEEARRVAEEAERRFGLPLFLAGGSLGAFVAHLLLAEGFRPRGVLAFIGSGFPMKLPQGQVVEDPGVLALYQAPPATRGEAYGGVPLLHLHGSRDLIVPLARMEKTLEALRPHYPEGRLARFVEEGAGHTLTPLMARVGLAFLEHWLEAR
